In general, kcat refers to the maximal rate divided by the concentration of active sites. The kcat/Km is the second-order rate constant that governs catalysis at low substrate concentration.

In one series the test system is T1, CC(=O)C(=O)O.
T1 construct: full-length, codon-optimised, pET-28a(+) NdeI/XhoI, N- and C-terminal 6xHis tags, E. coli BL21 (DE3), Ni-NTA purified
The series is described as follows: purified protein. The class given is biochemical, Candidatus Bathyarchaeota archaeon. To be noted: reductive amination, 0.5 mM NADH, 0.5 M NH4Cl, pH 10.5, 25 °C.

The subject of the next series is T2, CCC(=O)C(=O)O.
T2 construct: full-length, codon-optimised, pET-28a(+) NdeI/XhoI, N- and C-terminal 6xHis tags, E. coli BL21 (DE3), Ni-NTA purified
The experiment in a line: purified protein. The series is classed as biochemical, Candidatus Bathyarchaeota archaeon. To be noted: reductive amination, 0.5 mM NADH, 0.5 M NH4Cl, pH 10.5, 25 °C.

Another series relates to T3, CCCC(=O)C(=O)O.
T3 construct: full-length, codon-optimised, pET-28a(+) NdeI/XhoI, N- and C-terminal 6xHis tags, E. coli BL21 (DE3), Ni-NTA purified
The series is described as follows: purified protein. The class given is biochemical, Candidatus Bathyarchaeota archaeon. The following applies: reductive amination, 0.5 mM NADH, 0.5 M NH4Cl, pH 10.5, 25 °C.

Another series addresses T4, AfAlaDH (Archaeoglobus fulgidus, UniProt O28608).
T4 construct: gene ala; full-length, codon-optimised, pET-28a(+) NdeI/XhoI, N- and C-terminal 6xHis tags, E. coli BL21 (DE3), Ni-NTA purified
T4 sequence (O28608 1-322): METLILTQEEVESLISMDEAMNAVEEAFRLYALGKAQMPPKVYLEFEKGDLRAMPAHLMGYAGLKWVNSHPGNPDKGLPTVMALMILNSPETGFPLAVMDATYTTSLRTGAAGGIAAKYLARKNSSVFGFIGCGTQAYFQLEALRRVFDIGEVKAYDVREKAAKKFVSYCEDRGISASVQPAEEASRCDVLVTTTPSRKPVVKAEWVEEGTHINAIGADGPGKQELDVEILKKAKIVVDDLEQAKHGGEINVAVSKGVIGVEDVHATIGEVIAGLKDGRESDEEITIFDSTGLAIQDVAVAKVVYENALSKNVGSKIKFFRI
The series is described as follows: NADH consumption at […] nm, Michaelis-Menten fit. The series is classed as biochemical. The following applies: reductive amination; 0.5 mM NADH, 0.5 M NH4Cl, pH 9.5, 25 °C; read-out: Pyruvate / KM.

Substrate in series [1]: CC(=O)C(=O)O
The series is described as follows: purified protein. The series is classed as biochemical, Melghiribacillus thermohalophilus. The following applies: reductive amination, 0.5 mM NADH, 0.5 M NH4Cl, pH 9.5, 25 °C.

Substrate in series [2]: CCC(=O)C(=O)O
The series is described as follows: purified protein. The following applies: reductive amination, 0.5 mM NADH, 0.5 M NH4Cl, pH 9.5, 25 °C. The class given is biochemical, Melghiribacillus thermohalophilus.

Substrate in series [3]: CCCC(=O)C(=O)O
The series is described as follows: purified protein. The class given is biochemical, Melghiribacillus thermohalophilus. To be noted: reductive amination, 0.5 mM NADH, 0.5 M NH4Cl, pH 9.5, 25 °C.

Substrate in series [4]: CC(=O)C(=O)O
The series is described as follows: purified protein. The series is classed as biochemical, Thermus thermophilus. To be noted: reductive amination, 0.5 mM NADH, 0.5 M NH4Cl, pH 8.5, 25 °C.

Substrate in series [5]: CCCCC(=O)C(=O)O
The series is described as follows: purified protein. The series is classed as biochemical, Thermus thermophilus. The following applies: reductive amination, 0.5 mM NADH, 0.5 M NH4Cl, pH 8.5, 25 °C.

Substrate in series [6]: CCC(=O)C(=O)O
The experiment in a line: purified protein. The following applies: reductive amination, 0.5 mM NADH, 0.5 M NH4Cl, pH 8.5, 25 °C. The class given is biochemical, Thermus thermophilus.

Substrate in series [7]: CCCC(=O)C(=O)O
The series is described as follows: purified protein. The class given is biochemical, Thermus thermophilus. To be noted: reductive amination, 0.5 mM NADH, 0.5 M NH4Cl, pH 8.5, 25 °C.

Substrate in series [8]: CC(=O)C(=O)O
The experiment in a line: purified protein. The series is classed as biochemical, Ammoniphilus sp. CFH 90114. The following applies: reductive amination, 0.5 mM NADH, 0.5 M NH4Cl, pH 10.5, 25 °C.

Substrate in series [9]: CCC(=O)C(=O)O
The series is described as follows: purified protein. The class given is biochemical, Ammoniphilus sp. CFH 90114. The following applies: reductive amination, 0.5 mM NADH, 0.5 M NH4Cl, pH 10.5, 25 °C.

Substrate in series [10]: CCCC(=O)C(=O)O
The series is described as follows: purified protein. The series is classed as biochemical, Ammoniphilus sp. CFH 90114. To be noted: reductive amination, 0.5 mM NADH, 0.5 M NH4Cl, pH 10.5, 25 °C.

Substrate in series [11]: CCC(=O)C(=O)O
The series is described as follows: purified protein. The series is classed as biochemical, Archaeoglobus fulgidus. To be noted: reductive amination, 0.5 mM NADH, 0.5 M NH4Cl, pH 9.5, 25 °C.

Substrate in series [12]: CCCC(=O)C(=O)O
The series is described as follows: purified protein. To be noted: reductive amination, 0.5 mM NADH, 0.5 M NH4Cl, pH 9.5, 25 °C. The class given is biochemical, Archaeoglobus fulgidus.

As for “CbAlaDH (Candidatus Bathyarchaeota archaeon)”, in the series with CC(=O)C(=O)O, the Km was determined as 400 ± 0 µM, the kcat came out at 0.5 ± 0.1 s⁻¹ and the kcat/Km is 1300 ± 100 M⁻¹ s⁻¹. In the series with CCC(=O)C(=O)O, the Km was determined as 2200 ± 1000 µM, the kcat was 0.7 ± 0.2 s⁻¹ and the kcat/Km turned out to be 300 ± 200 M⁻¹ s⁻¹. In the series on CCCC(=O)C(=O)O, the Km is 800 ± 0 µM, the kcat came out at 0.17 ± 0.1 s⁻¹ and the kcat/Km amounted to 210 ± 100 M⁻¹ s⁻¹.

In the case of `CC(=O)C(=O)O` [pyruvate], the Km at AfAlaDH was 200 ± 100 µM.

B1: MetAlaDH (Melghiribacillus thermohalophilus) (protein)
chain: MKIGVPKEIKNNENRVALTPAGVMTLKKAGHEVFIETGAGLGSGFTDEQYTEAGAQIVTTAKEAWSQEMVMKVKEPLPEEYDYFYEGLILFTYLHLAAEPELTKALIEKKVVGIAYETVQLDNGSLPLLTPMSEVAGRMATQIGAQFLEKPHGGKGILLGGIPGVRRGKVTIIGGGVVGTNAAKIAVGLGADVTIVDLNPDRLRELDDIFGSSINTLMSNSLNIAEAVKESDLVIGAVLIPGAKAPKLVTEDMVKEMKKGSVIVDVAIDQGGIVETSDRITTHDNPTYEKHGVVHYAVANMPGAVPRTSTIGLTNVTVPYAVQLANKGYKQACLDHAALKKGINTLNGYVTYQAVAEAHGLEYENVDLLLK
notes: full-length, codon-optimised, pET-28a(+) NdeI/XhoI, N- and C-terminal 6xHis tags, E. coli BL21 (DE3), Ni-NTA purified
Turning to B1, in “purified protein [1]”, the Km came to 1300 ± 400 µM, the kcat stood at 140 ± 19.7 s⁻¹ and the kcat/Km was determined as 108000 ± 12000 M⁻¹ s⁻¹. Also, in “purified protein [2]”, the Km worked out at 3800 ± 1200 µM, the kcat was found to be 3.3 s⁻¹ and the kcat/Km stood at 800 M⁻¹ s⁻¹. Also, in the series “purified protein [3]”, the Km worked out at 1900 ± 0 µM, the kcat came to 0.7 s⁻¹ and the kcat/Km is 400 M⁻¹ s⁻¹.

B2: TtAlaDH (Thermus thermophilus HB8) (protein)
chain: MVIGVPKEIKTLENRVALTPGGVESLVRRGHTVLVERGAGEGSGLSDAEYARAGAELVGREEAWGAEMVVKVKEPLPEEYGFLREGLILFTYLHLAADRGLTEAMLRSGVTGIAYETVQLPDGTLPLLVPMSEVAGRMAPQVGAQFLEKPKGGRGVLLGGVPGVAPASVVILGGGTVGTNAAKIALGMGAQVTILDVNHKRLQYLDDVFGGRVITLTATEANIKKSVQHADLLIGAVLVPGAKAPKLVTRDMLSLMKEGAVIVDVAVDQGGCVETIRPTTHAEPTYVVDGVVHYGVANMPGAVPRTSTFALTNQTLPYVLKLAEKGLDALLEDAALLKGLNTHKGRLTHPGVAEAFGLPYTPPEEALRG
notes: as for B1
Regarding B2, the Km in the series “purified protein [4]” is 630 ± 200 µM; in “purified protein [5]” it was 400 µM; in the series “purified protein [6]”, 400 ± 100 µM; in “purified protein [7]”, 3300 ± 1100 µM. For the same molecule, the kcat in “purified protein [4]” came to 87 ± 5.1 s⁻¹; in “purified protein [6]” it was 1.1 s⁻¹; in “purified protein [7]”, 1.2 s⁻¹. Besides, the results for the kcat/Km in “purified protein [4]”, in the series “purified protein [6]” and in the series “purified protein [7]” were 138000 ± 15700 M⁻¹ s⁻¹, 3000 ± 700 M⁻¹ s⁻¹ and 400 M⁻¹ s⁻¹, respectively.

B3: AcfhAlaDH (Ammoniphilus sp. CFH 90114) (protein)
chain: MIIGVPKEIKNNENRVGLTPAGVTAFKNNGHDVWVETNAGMGSGFTDEDYTAAGAKIVDSASVVWSAEMVVKVKEPLPEEYTYFREGLILYTYLHLAPEPELTKALVEKKVIAIAYETIQADNGSLPLLTPMSEVAGRMSIQIGAQFLEKSKGGKGVLLGGVPGVAPGEVVIVGGGIVGTNAAKMALGLGASVTLLDISADRLRQLDDMFQGRLKTLMSNSYNIAEAVKKADLVVGAVLIPGARAPRLVTEEMVKTMQPGSVIVDVAIDQGGSIETIDRITTHDNPTYVKHGVLHYAVANMPGAVARTSTIALTNVTVPYGVQIANKGWKQAALDNKALAKGINVVDGKVTYKAVAEAHGYTPVAVETVLTGQNVGV
notes: as for B1
For B3, in “purified protein [8]”, the Km was 700 ± 200 µM, the kcat worked out at 112 ± 6.6 s⁻¹ and the catalytic efficiency (kcat/Km) is 148000 ± 13500 M⁻¹ s⁻¹. In “purified protein [9]”, the Km amounted to 1300 ± 400 µM, the kcat is 5.4 ± 0.5 s⁻¹ and the kcat/Km was 4000 ± 1400 M⁻¹ s⁻¹. Moreover, in the series “purified protein [10]”, the Km turned out to be 5200 ± 800 µM, the kcat worked out at 1 s⁻¹ and the kcat/Km stood at 200 M⁻¹ s⁻¹.

B4: AfAlaDH (Archaeoglobus fulgidus DSM 4304) (protein)
chain: T4 sequence (O28608 1-322)
notes: as for B1
On to B4, for which, in the series “purified protein [11]”, the Km is 200 ± 0 µM, the kcat was determined as 7.5 ± 0.1 s⁻¹ and the kcat/Km was determined as 34000 ± 100 M⁻¹ s⁻¹. In the series “purified protein [12]”, the Km was found to be 300 ± 0 µM, the kcat worked out at 0.9 ± 0.2 s⁻¹ and the kcat/Km was found to be 2700 ± 300 M⁻¹ s⁻¹.

For the origin of these results see PMC10923667, “Cloning and expression heterologous alanine dehydrogenase genes: Investigation of reductive amination potential of L-alanine dehydrogenases for green synthesis of alanine derivatives” (Heliyon, 2024).
